± gives the uncertainty stated by the source.

A short description of the data set: amyloid nucleation score (Sup35N fusion, yeast selection) (log enrichment); library NNK3; higher = more nucleation; inactive = no reads after selection. The method in brief:
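The nucleation score equals the log enrichment of output over input reads from DiMSum, centred on the mode score of non-aggregating sequences. It was computed only for sequences with 100 or more input reads. The reads came from Illumina sequencing of plasmid inserts from psi-negative yeast expressing Sup35N fused to peptides of 20 random codons, induced with 100 μM copper sulfate for 24 hours and grown 7 days at 30°C without adenine and uracil.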
Regarding HSDILRFCLMVNKDTVHSVL, the amyloid nucleation score entry is “inactive”. Next, HSEADDSLTGYFALVATRVF: “inactive”; HSITNITCSFDLAFLRMHVL: 0.871 ± 0.11. With HSSMIIRLWLDVVVQIRGQ, the amyloid nucleation score stood at 0.575 ± 0.28. Take HSSVSMGLVGGSTE: the amyloid nucleation score result is “inactive”. Regarding HSVASDYRTAFLLSHT, the amyloid nucleation score came to 1.39 ± 0.089.

Consider HSVFFY, for which the amyloid nucleation score result was “inactive”.

As for HSVFISLGMFRPVTSYL, the amyloid nucleation score entry is “inactive”. Then HSYFDFYSYDSYNVRHRSVK, with “inactive”; and HTLLHEF, with “inactive”; and HTRLAPWSMDEGRAV, with “inactive”.

As for HVIHGCNSIFYSVS, the amyloid nucleation score entry was “inactive”. For the substance HVLLDPEIITA, the amyloid nucleation score result was “inactive”. Consider HVMTHFG, for which the amyloid nucleation score entry was “inactive”. Take HVSAARMFSSYDPRKPGENM: the amyloid nucleation score result was “inactive”. Then HVVFLSSMVATTLLWFG, with 1.26 ± 0.12. For the substance HVVVKK, the amyloid nucleation score entry was “inactive”. Then HWAVRH, with 0.212 ± 0.42. Then HWKLHALGRWAGQGFTR, with “inactive”; and HWLTSSVKSLTPRSGQKGLD, with “inactive”.

HWSRFQYGLVFRNFIVQNLD: the amyloid nucleation score result is “inactive”. Turning to HWVLQYRCSARKRSHLRYSM, the amyloid nucleation score result was “inactive”.

In the case of HWVWIGVCLYNDRRGTGICV, the amyloid nucleation score was 1.15 ± 0.16. Next, HYAAFFYLLINMTGHAHFLK: “inactive”; HYAASSLYLTATHGFICSMC: 1.73 ± 0.073.

As to HYCMRN, the amyloid nucleation score entry was “inactive”.

HYEVRGVLFAMPPCGNI: the amyloid nucleation score result is “inactive”. Next, HYKLSSMVSVYLLTIL: -0.307 ± 0.88; HYLLACSYDRFFSRSSAYSL: “inactive”. For HYLRHHIAILSLATGLMETE, the amyloid nucleation score entry was “inactive”.

Consider IADDQTYLLVLLFYFIKKLN, for which the amyloid nucleation score entry was “inactive”.

For IAFATFVVTFIMMEEMFFKN, the amyloid nucleation score entry was “inactive”.

Turning to IAGLSNNTTDGLLRISHRYL, the amyloid nucleation score entry is “inactive”. IAKLVKFEEFRMQDCYIDWL: the amyloid nucleation score entry was “inactive”. Next, IALKSGMVCRYRYHIGGRIS: “inactive”; IALLHQKHIG: “inactive”.

On to IALLLQSQLMRHGGFASWNR, for which the amyloid nucleation score entry was “inactive”. Take IALLWQAHLWRHDWKFYFDS: the amyloid nucleation score result was “inactive”.

In the case of IANLRAFILFMCDMKSTNPK, the amyloid nucleation score result was “inactive”. IAYKFWGSNVLDR: the amyloid nucleation score entry is “inactive”. For ICDDMVGVC, the amyloid nucleation score entry is “inactive”. For the substance ICGCPTYCNEANLLLERN, the amyloid nucleation score entry is “inactive”. For the substance ICGMLR, the amyloid nucleation score result is “inactive”.

Regarding ICPSNFWMFCSCYWSMLRNF, the amyloid nucleation score entry is “inactive”.

With ICSYTSVYSRKW, the amyloid nucleation score turned out to be 0.404 ± 0.35. Next, ICTECAYFSTWRHSMCITWG: “inactive”. Then IDAYPVWELITLFLFGLMLY, with “inactive”; and IDFIVLSSL, with “inactive”; and IDKVLGPKVPAHRTSGGLSK, with “inactive”. Take IDMFGSWFSCILGEKNQLGS: the amyloid nucleation score entry is “inactive”. Then IDNMMYVV, with “inactive”; and IDVKSLSWKMYRRLGTIPYT, with -0.317 ± 0.93. Regarding IEDAMVFLGTNSQTICLFNV, the amyloid nucleation score entry is “inactive”.

For IEFFEYVCVMFFCC, the amyloid nucleation score result is “inactive”. For the substance IEGTAMTVTFTFNPYPFHET, the amyloid nucleation score result was “inactive”. Then IELERMNGL, with “inactive”.

With IELRM, the amyloid nucleation score entry was “inactive”.

Consider IERLTCIYRSFESHLAGFVG, for which the amyloid nucleation score result is “inactive”. Then IEVIYGV, with “inactive”; and IEVYAGTF, with “inactive”; and IFFQCNVAMQKDSDAKGTYV, with 1.84 ± 0.067. Next, IFGCFSCSVSMFIDNAVMSL: 2.55 ± 0.066; IFIGVGNVGEVLVIYSWQRN: 0.035 ± 0.48; IFILRLDIIALLNVTGIRIW: “inactive”. IFLLAVNSGINVTGCPLPKG registered an amyloid nucleation score of 2.28 ± 0.09. On to IFNWFDWIFRFSTTSPECLT, for which the amyloid nucleation score result was “inactive”.

In turn, IFVNSTVLFLMHVCCLSVIS registered an amyloid nucleation score of 2.12 ± 0.068. Then IFVSCCLLRLSAGWVVKLIR, with “inactive”; and IGCWTSYSWNRSRKFYMQQE, with 0.799 ± 0.17; and IGIINMSLN, with 1.19 ± 0.11. Then IGKSRFKCMSVVRSRFT, with “inactive”.

IGLSSHISWYE: the amyloid nucleation score entry was “inactive”. Next, IGNAFFETRLVFGRH: 1.86 ± 0.081. Next, IGPVTLKERETRTP: “inactive”; IGSNRRSFEVCTYIASKIPL: “inactive”; IGSPSHLYKYHCVGFRVSSQ: “inactive”. Take IGTLSNLLTKGCKYYGVNIC: the amyloid nucleation score entry is “inactive”. As for IGVLCALDGISRIAFFSLLL, the amyloid nucleation score result was “inactive”. Then IGWYYSYITRKSENWVLVAL, with “inactive”; and IHFLNWSARM, with “inactive”. As for IHGPGCRSCERSSVGLRSGL, the amyloid nucleation score result was “inactive”. Then IHPVNLRVLSFGHIWCWYLR, with “inactive”. For IIASDLSLSVVNVFN, the amyloid nucleation score turned out to be 0.341 ± 0.31. Then IIFDR, with “inactive”; and IILFINATGRIRSWCDEYGL, with 0.681 ± 0.27; and IILTIGRMGLFNMAK, with -0.152 ± 0.47.

Consider IINLQSWQHLLNRHGTELSV, for which the amyloid nucleation score result was “inactive”. Then IIPTD, with “inactive”; and IIQALVF, with “inactive”.

IIQDYGTVVD: the amyloid nucleation score result is “inactive”. IIRVLNWYHYIEAKTLNSLR: the amyloid nucleation score result was “inactive”. Next, IITYKVS: “inactive”; IIVVCDSDRLFLPNQPPNVI: “inactive”.

Turning to IKFSYKCS, the amyloid nucleation score entry is “inactive”. Next, IKIHYF: “inactive”. Substance IKMSLAELTIFRCLWDCPNS showed an amyloid nucleation score of 2.42 ± 0.077.

Take IKPSAS: the amyloid nucleation score entry was “inactive”. Substance IKSLFVGGFSLNVTPTHKGR came in with an amyloid nucleation score of 1.57 ± 0.13. In the case of ILADSCGV, the amyloid nucleation score entry is “inactive”.

In the case of ILCLVAVLGASRGYVMAEWY, the amyloid nucleation score result was “inactive”.

In the case of ILCSSDCDSYSLQPLFGFPC, the amyloid nucleation score entry was “inactive”. Then ILDTEHYLMYKVSPAVASLS, with “inactive”; and ILFSISSVMF, with 0.605 ± 0.19.

With ILIRHDAMNRYPQC, the amyloid nucleation score result was “inactive”. Turning to ILKKRFRMVPLK, the amyloid nucleation score result is “inactive”. ILKSTELWKRESQFSQRVGA gave an amyloid nucleation score of 4.44 ± 0.057.

In the case of ILLCRKYWFFRFTMVV, the amyloid nucleation score result is “inactive”.

For the substance ILLFYLSLKRCSLQARGLDS, the amyloid nucleation score is -0.659 ± 1.8.

ILLIWCIFTSAKFQQTSFMT: the amyloid nucleation score result is “inactive”. For the substance ILLWFSTVNWSFANEPGQIL, the amyloid nucleation score entry is “inactive”. For the substance ILRFMYAVHDISFFYLIVCF, the amyloid nucleation score entry is “inactive”. Then ILRLTCLIAKHTRAVNMDLQ, with “inactive”; and ILRYVLAHSVLKTCLMQGLA, with “inactive”; and ILSITC, with “inactive”. Next, ILSLAGSKWCWEKYRMGS: “inactive”.

With ILSLPRRNYSKTVFNRLKAE, the amyloid nucleation score result was “inactive”. In the case of ILSNDEFTCKFCCSCSYRGG, the amyloid nucleation score was determined as 0.956 ± 0.31. Then ILVFR, with “inactive”; and ILVGNFSILWY, with “inactive”.

Regarding ILVIIKNHFVFFAGR, the amyloid nucleation score entry was “inactive”. Then ILVLRHA, with “inactive”; and ILVTASTAYLDVRVKWIQTF, with “inactive”; and ILYLVR, with “inactive”. Next, IMFSILSVMML: 1.74 ± 0.11; IMKKESVAHHVNIGIHASLT: -0.101 ± 1.1.

As for IMLKL, the amyloid nucleation score entry was “inactive”.

For the substance IMNHLLSRVVCFLDKIVHMG, the amyloid nucleation score entry is “inactive”. Then IMSKVASDALIPVTSSMSTG, with “inactive”; and IMSPTFGFQMLWPGPRHRLL, with “inactive”; and IMTSFPGEFPLSLHNMCASC, with “inactive”. Then IMYFMLMLGSSRMSFTKLMG, with “inactive”.

Regarding INAQS, the amyloid nucleation score result is “inactive”. INDLKGVVLNIWIKYIV returned an amyloid nucleation score of 0.602 ± 0.14. Turning to INFHMS, the amyloid nucleation score entry is “inactive”.
